# Measurements taken from IntAct's records for PubMed 12058072.
# B1: Serine/threonine-protein kinase GIN4 (Saccharomyces cerevisiae), Q12263 (parent)
# chain: MAINGNSIPAIKDNTIGPWKLGETLGLGSTGKVQLARNGSTGQEAAVKVISKAVFNTGNVSGTSIVGSTTPDALPYGIEREIIIMKLLNHPNVLRLYDVWETNTDLYLVLEYAEKGELFNLLVERGPLPEHEAIRFFRQIIIGVSYCHALGIVHRDLKPENLLLDHKYNIKIADFGMAALETEGKLLETSCGSPHYAAPEIVSGIPYQGFASDVWSCGVILFALLTGRLPFDEEDGNIRTLLLKVQKGEFEMPSDDEISREAQDLIRKILTVDPERRIKTRDILKHPLLQKYPSIRDSKSIRGLPREDTYLTPLSESNSSIDATILQNLVILWHGRDPEGIKEKLREPGANAEKTLYALLYRFKCDTQKELIKQQQVKKRQSISSVSVSPSKKVSTTPQRRRNRESLISVTSSRKKPISFNKFTASSASSSNLTTPGSSKRLSKNFSSKKKLSTIVNQSSPTPASRNKRASVINVEKNQKRASIFSTTKKNKRSSRSIKRMSLIPSMKRESVTTKLMSTYAKLAEDDDWEYIEKETKRTSSNFATLIDEIFEYEKYEQIRKEKEELERKVREAKAREELERRRRKQEEKERARKLLEKEDLKRKQEELKKQIEIDISDLEQELSKHKEEKLDGNIRSISAPMENEEKNINHLEVDIDNILRRRNFSLQTRPVSRLDPGIMFSSPTEEVSPVEPKRTENERLTTEKKILETIRRSKFLGSSFNIDKELKLSKMEYPSIIAPQRLSEERVVSDSNDGYESLILPKDGNGVSQLKDSTATTAPVSDGRLRKISEIRVPQFTRKSRHFSESNKRLSVLSMYSTKESFTNLVDILKNGNLDVNNQQSQRIPTPRSADDSEFLFETVNEEAEYTGNSSNDERLYDVGDSTIKDKSALKLNFADRFNGSNEAKQTDNLHLPILPPLNGDNELRKQNSQEGDQAHPKIKSMIPESGSSSHTEKEEENEEKEEKKPEQHKQEEDQEKREKVVDDMEPPLNKSVQKIREKNAGSQAKDHSKDHLKEHKQDKNTAIGNGSFFRKFSKSSDKTMELYAKISAKQLFNGLEKLLRGWTQYGLKNIKSHPNNLTLTGKLSSDNIFSLRSTLFEVNIYPRGKMSVVQFKKVSGSFKAVKKLVNEVENVLNKEGVLQK
# partner: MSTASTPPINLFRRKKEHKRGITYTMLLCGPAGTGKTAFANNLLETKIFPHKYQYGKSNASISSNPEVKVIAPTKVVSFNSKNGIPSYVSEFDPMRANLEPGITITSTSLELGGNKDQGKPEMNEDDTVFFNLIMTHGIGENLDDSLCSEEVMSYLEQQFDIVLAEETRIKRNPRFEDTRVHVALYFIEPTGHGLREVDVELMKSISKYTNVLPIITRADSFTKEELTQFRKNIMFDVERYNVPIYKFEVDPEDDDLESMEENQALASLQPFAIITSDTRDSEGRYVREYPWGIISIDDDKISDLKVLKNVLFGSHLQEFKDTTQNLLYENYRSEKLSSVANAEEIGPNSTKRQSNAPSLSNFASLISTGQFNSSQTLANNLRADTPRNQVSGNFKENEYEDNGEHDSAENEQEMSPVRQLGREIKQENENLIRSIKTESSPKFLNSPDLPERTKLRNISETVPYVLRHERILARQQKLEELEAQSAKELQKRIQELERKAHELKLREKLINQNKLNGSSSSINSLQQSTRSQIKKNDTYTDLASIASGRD
# Variants of: B1
# Conditions: with shs1_yeast SHS1, Q07657
row,effect of a mutation on the interaction,Variant
1,disrupting interaction,K48A
